We go through 1 protein from FireProtDB (doi:10.1110/ps.062645007).

Where “and” joins values, the source holds several entries; their conditions need not be identical. Identical values can stand only once.

For this series the following is noted: Salmonella typhimurium (strain LT2 / SGSC1412 / ATCC 700720); pH 7.4; Thermal; CD; Phosphate 10 mM; transition: 3; whole UniProt chain shown.

B1: Cell invasion protein SipD wild type, Q56026 (protein)
chain: MLNIQNYSASPHPGIVAERPQTPSASEHVETAVVPSTTEHRGTDIISLSQAATKIHQAQQTLQSTPPISEENNDERTLARQQLTSSLNALAKSGVSLSAEQNENLRSAFSAPTSALFSASPMAQPRTTISDAEIWDMVSQNISAIGDSYLGVYENVVAVYTDFYQAFSDILSKMGGWLLPGKDGNTVKLDVTSLKNDLNSLVNKYNQINSNTVLFPAQSGSGVKVATEAEARQWLSELNLPNSCLKSYGSGYVVTVDLTPLQKMVQDIDGLGAPGKDSKLEMDNAKYQAWQSGFKAQEENMKTTLQTLTQKYSNANSLYDNLVKVLSSTISSSLETAKSFLQG
The Tm is the temperature at the midpoint of the melting transition. In the case of B1, the Tm was 75.7 °C and 76.6 °C.
